Reference: patent US20250011363A1, “OPTIMIZED SHORTENED PEPTIDE THAT BINDS TO ACETYLCHOLINE RECEPTOR, AND USE THEREOF” (SKINMED CO., LTD., priority 2021, published 2025)
One block for each binder: values may come before it.

Biological target: acetylcholine receptor
Experiment: SPR, AchR immobilised on chip, peptide 10 uM

B2: 5mer-816 (peptide)
peptide: RKPIK
Binding affinity (RU): 26 RU

B3: 5mer-1117 (peptide)
peptide: RHKIR
Binding affinity (RU): 11 RU

B4: 5mer-1132 (peptide)
peptide: KFSMK
Binding affinity (RU): 19 RU

B5: 5mer-1139 (peptide)
peptide: KHCWK
Binding affinity (RU): 28 RU

B7: 5mer-822 (peptide)
peptide: RAKGK
Binding affinity (RU): 16 RU

B9: 5mer-1131 (peptide)
peptide: KCDGK
Binding affinity (RU): 14 RU

B11: 5mer-1144 (peptide)
peptide: KAKNR
Binding affinity (RU): 33 RU

B12: 5mer-1111 (peptide)
peptide: KAEHK
Binding affinity (RU): 12 RU

B14: 5mer-840 (peptide)
peptide: KDTAR
Binding affinity (RU): 11 RU

B18: 5mer-1126 (peptide)
peptide: KPTHK
Binding affinity (RU): 26 RU

B20: 5mer-828 (peptide)
peptide: RFCWR
Binding affinity (RU): 27 RU

B21: 5mer-1136 (peptide)
peptide: KNSAR
Binding affinity (RU): 25 RU

B22: 5mer-844 (peptide)
peptide: KTDPR
Binding affinity (RU): 32 RU

B23: 5mer-818 (peptide)
peptide: KHWHR
Binding affinity (RU): 12 RU

B24: 5mer-1113 (peptide)
peptide: RHMER
Binding affinity (RU): 19 RU

B26: 5mer-1146 (peptide)
peptide: KPHGR
Binding affinity (RU): 23 RU

B27: 5mer-837 (peptide)
peptide: RPMDR
Binding affinity (RU): 28 RU

B28: 5mer-819 (peptide)
peptide: RNTIK
Binding affinity (RU): 19 RU

B29: 5mer-1134 (peptide)
peptide: RTCKR
Binding affinity (RU): 26 RU

B30: 5mer-834 (peptide)
peptide: RMNIK
Binding affinity (RU): 15 RU

B32: 5mer-1135 (peptide)
peptide: RHTAR
Binding affinity (RU): 17 RU

B33: 5mer-1141 (peptide)
peptide: REEVR
Binding affinity (RU): 26 RU

B34: 5mer-1110 (peptide)
peptide: RMHMK
Binding affinity (RU): 13 RU

B35: 5mer-1116 (peptide)
peptide: KECFR
Binding affinity (RU): 24 RU

B36: 5mer-1114 (peptide)
peptide: RKTFR
Binding affinity (RU): 28 RU

B37: 5mer-1145 (peptide)
peptide: RMPAK
Binding affinity (RU): 25 RU

B38: 5mer-842 (peptide)
peptide: RHNVK
Binding affinity (RU): 20 RU

B39: 5mer-1121 (peptide)
peptide: RFKVK
Binding affinity (RU): 29 RU

B40: 5mer-829 (peptide)
peptide: KCWHR
Binding affinity (RU): 26 RU

B42: 5mer-847 (peptide)
peptide: KAPEK
Binding affinity (RU): 28 RU

B43: 5mer-1108 (peptide)
peptide: RNPIR
Binding affinity (RU): 19 RU

B44: 5mer-1119 (peptide)
peptide: KMNIK
Binding affinity (RU): 19 RU

B45: 5mer-811 (peptide)
peptide: KMTMR
Binding affinity (RU): 32 RU

B46: 5mer-826 (peptide)
peptide: KCKMK
Binding affinity (RU): 11 RU

B47: 5mer-843 (peptide)
peptide: KTTPK
Binding affinity (RU): 17 RU

B48: 5mer-814 (peptide)
peptide: RITMR
Binding affinity (RU): 11 RU

B52: 5mer-1142 (peptide)
peptide: KTENK
Binding affinity (RU): 24 RU

B54: 5mer-813 (peptide)
peptide: RAHVR
Binding affinity (RU): 21 RU

B55: 5mer-1143 (peptide)
peptide: RATGK
Binding affinity (RU): 19 RU

B59: 5mer-824 (peptide)
peptide: KIDMK
Binding affinity (RU): 13 RU

B62: 5mer-833 (peptide)
peptide: KATAK
Binding affinity (RU): 33 RU

B63: 5mer-823 (peptide)
peptide: KECFK
Binding affinity (RU): 26 RU

B64: 5mer-1109 (peptide)
peptide: KCHPK
Binding affinity (RU): 14 RU

B65: 5mer-821 (peptide)
peptide: RESDR
Binding affinity (RU): 12 RU

B66: 5mer-845 (peptide)
peptide: RYEDR
Binding affinity (RU): 15 RU

B67: 5mer-815 (peptide)
peptide: RKDHR
Binding affinity (RU): 27 RU

B69: 5mer-1112 (peptide)
peptide: RTTFK
Binding affinity (RU): 29 RU

B76: 5mer-841 (peptide)
peptide: KNEMR
Binding affinity (RU): 22 RU

B77: 5mer-1130 (peptide)
peptide: RFMVR
Binding affinity (RU): 17 RU

B78: 5mer-1127 (peptide)
peptide: RIADR
Binding affinity (RU): 16 RU

B79: 5mer-1125 (peptide)
peptide: RYPFK
Binding affinity (RU): 29 RU

More lines, now with the values ahead:

Binding affinity (RU): 26 RU
B1: 5mer-1128 (peptide)
peptide: REWVR

Binding affinity (RU): 27 RU
B6: 5mer-1115 (peptide)
peptide: KEPEK

Binding affinity (RU): 33 RU
B8: 5mer-1120 (peptide)
peptide: RPPDR

Binding affinity (RU): 23 RU
B10: 5mer-1133 (peptide)
peptide: KCSMK

Binding affinity (RU): 11 RU
B13: 5mer-810 (peptide)
peptide: KFHKK

Binding affinity (RU): 13 RU
B15: 5mer-838 (peptide)
peptide: RHSMK

Binding affinity (RU): 16 RU
B16: 5mer-1147 (peptide)
peptide: RDTGK

Binding affinity (RU): 23 RU
B17: 5mer-817 (peptide)
peptide: RHKDR

Binding affinity (RU): 18 RU
B19: 5mer-832 (peptide)
peptide: RMHER

Binding affinity (RU): 14 RU
B25: 5mer-825 (peptide)
peptide: RDEKK

Binding affinity (RU): 32 RU
B31: 5mer-846 (peptide)
peptide: RPDWR

Binding affinity (RU): 28 RU
B41: 5mer-1118 (peptide)
peptide: RMDAR

Binding affinity (RU): 15 RU
B49: 5mer-809 (peptide)
peptide: RKSGK

Binding affinity (RU): 28 RU
B50: 5mer-1140 (peptide)
peptide: RNEFK

Binding affinity (RU): 15 RU
B51: 5mer-836 (peptide)
peptide: REWNR

Binding affinity (RU): 18 RU
B53: 5mer-827 (peptide)
peptide: KKAGR

Binding affinity (RU): 24 RU
B56: 5mer-1138 (peptide)
peptide: RENHK

Binding affinity (RU): 26 RU
B57: 5mer-839 (peptide)
peptide: RHHDK

Binding affinity (RU): 14 RU
B58: 5mer-1122 (peptide)
peptide: RNTDR

Binding affinity (RU): 14 RU
B60: 5mer-1129 (peptide)
peptide: KFDAR

Binding affinity (RU): 14 RU
B61: 5mer-835 (peptide)
peptide: RFMMR

Binding affinity (RU): 25 RU
B68: 5mer-830 (peptide)
peptide: RIDGK

Binding affinity (RU): 27 RU
B70: 5mer-812 (peptide)
peptide: KTEGR

Binding affinity (RU): 28 RU
B71: 5mer-820 (peptide)
peptide: RIMHK

Binding affinity (RU): 30 RU
B72: 5mer-1124 (peptide)
peptide: KKPVK

Binding affinity (RU): 24 RU
B73: 5mer-831 (peptide)
peptide: RAAGK

Binding affinity (RU): 22 RU
B74: 5mer-1137 (peptide)
peptide: KEEEK

Binding affinity (RU): 24 RU
B75: 5mer-1123 (peptide)
peptide: KYEKR
